Source: US20190062438A1 (CSL, published 2019)
Where a chain is given by its changes, count along the chain named.

Key:
[1] = molecular target: T1, soluble Homo sapiens CD131 comprising a C-terminal 6xHis tag (human, UniProt P32927 17-438); experiment: SPR, Fab over captured shCD131
T1 construct: truncated after Ser438, C-terminal 6xHis; also called shCD131; shβc
T1 sequence: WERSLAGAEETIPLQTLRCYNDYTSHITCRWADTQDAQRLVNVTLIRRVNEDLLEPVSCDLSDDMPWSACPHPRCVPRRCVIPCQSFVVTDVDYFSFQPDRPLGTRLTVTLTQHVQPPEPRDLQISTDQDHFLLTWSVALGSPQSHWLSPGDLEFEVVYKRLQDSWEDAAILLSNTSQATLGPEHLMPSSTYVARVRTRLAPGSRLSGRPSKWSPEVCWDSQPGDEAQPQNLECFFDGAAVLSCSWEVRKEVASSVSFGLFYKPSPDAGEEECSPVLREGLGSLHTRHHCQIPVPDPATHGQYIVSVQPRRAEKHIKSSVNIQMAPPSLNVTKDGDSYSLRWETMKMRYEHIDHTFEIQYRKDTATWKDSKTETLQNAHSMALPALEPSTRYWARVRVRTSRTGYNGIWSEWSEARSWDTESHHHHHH
Protocol: Binding kinetics were measured using SPR with a BIAcore™ A-100 instrument (GE Healthcare Life Sciences). An anti-C-terminal Hexa-His antibody (3H3) was immobilized on spots 1, 2, 4 and 5 of each flow cell of a CM-5 sensor chip (GE Healthcare Life Sciences) using amine-coupling chemistry (116). […] As shβc is a dimer, kinetics assays were performed with shβc captured on the sensor surface, and purified Fab injected as the analyte. Avidity effects were avoided by the use of Fab rather than whole IgG.
shCD131 was captured on spots 1 and 5 of each flow cell for 2 minutes at a concentration of 0.4 μg/ml. […] For some analysis purified Fab was injected over each flow cell for 3 minutes and dissociation was monitored for a further 10 minutes. Regeneration of the surface was performed after each cycle with a 40 second injection of 25 mM glycine, pH 2.0. The analysis was performed with Fabs at several concentrations between 100 and 0.31 nM, with each concentration analyzed twice and in random order. The analysis was performed at a flow rate of 30 μl/min in HBS-EP buffer (10 mM Hepes, 150 mM NaCl, 3 mM EDTA, 0.005% Tween 20, pH 7.4) at 37° C. Responses from spots 2 and 4 of each flow cell, (in which shβc was not captured, but otherwise treated identically), were subtracted from those of spots 1 and 5 respectively to produce reference subtracted data. Reference subtracted responses from a blank injection comprising buffer alone were subtracted from the resultant sensorgrams to produce double referenced data suitable for kinetic analysis. Double-referenced sensorgrams were fitted using non-linear regression to a model describing 1:1 kinetics, including a term for mass transport limitation. The Rₘₐₓ value was fitted locally to account for slight deviations in the level of sCD131 captured, with association rate (kₐ), dissociation rate (kd) and equilibrium dissociation constant (KD) fitted globally.

human CD131 = molecular target: T2, human CD131 (human, UniProt P32927 17-897); experiment: cell-based or functional assay
T2 sequence: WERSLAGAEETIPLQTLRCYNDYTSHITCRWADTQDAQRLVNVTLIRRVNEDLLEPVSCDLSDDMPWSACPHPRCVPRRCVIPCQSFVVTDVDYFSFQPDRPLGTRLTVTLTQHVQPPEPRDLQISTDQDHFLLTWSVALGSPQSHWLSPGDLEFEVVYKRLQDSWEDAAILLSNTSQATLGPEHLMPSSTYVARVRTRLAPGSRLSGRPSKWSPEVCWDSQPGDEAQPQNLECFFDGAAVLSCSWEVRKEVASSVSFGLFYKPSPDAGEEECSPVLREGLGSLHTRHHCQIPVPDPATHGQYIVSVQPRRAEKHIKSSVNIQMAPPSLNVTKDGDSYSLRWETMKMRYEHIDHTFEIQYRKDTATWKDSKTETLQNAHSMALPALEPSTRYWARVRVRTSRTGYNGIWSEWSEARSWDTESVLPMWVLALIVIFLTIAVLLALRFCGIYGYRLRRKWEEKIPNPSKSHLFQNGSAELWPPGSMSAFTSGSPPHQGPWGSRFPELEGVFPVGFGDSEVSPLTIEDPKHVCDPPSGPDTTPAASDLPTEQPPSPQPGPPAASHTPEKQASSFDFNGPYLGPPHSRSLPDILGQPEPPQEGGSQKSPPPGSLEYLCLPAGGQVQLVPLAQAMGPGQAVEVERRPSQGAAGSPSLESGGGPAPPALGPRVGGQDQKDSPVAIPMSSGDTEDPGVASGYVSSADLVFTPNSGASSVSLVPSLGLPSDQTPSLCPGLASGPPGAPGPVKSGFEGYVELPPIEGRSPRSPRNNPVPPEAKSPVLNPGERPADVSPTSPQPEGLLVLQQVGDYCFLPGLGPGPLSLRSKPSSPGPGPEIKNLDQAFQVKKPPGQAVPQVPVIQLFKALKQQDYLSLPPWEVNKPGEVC

B1: 9A2-VR19 Fab (Fab, V domains shown)
VH: EVQLLESGGGLVQPGGSLRLSCAASGFTFSHYHMLWVRQAPGKGLEWVSSIRSSGGFTYYADSVKGRFTISRDNSKNTLYLQMNSLRAEDTAVYYCARFYDSFFDIWGQGTMVTVSS
VL: DIQMTQSPSSVSASVGDRVTITCRASQGISSWLAWYQQKPGKAPKLLIYAASSLQSGVPSRFSGSGSGTDFTLTISSLQPEDFATYYCGIPILGPITFGQGTRLEIKR
notes: recombinant Fab
[1]
  Kd: 30 nM

B2: 9A2-VR20 Fab (Fab, V domains shown)
VH: B1 VH with S30N, H33R, M34V, L35H
VL: B1 VL with G89Q, I90Q, P91A, I92N, L93S, G94F
notes: recombinant Fab
[1]
  Kd: 0.58 nM

B3: 9A2-VR21 Fab (Fab, V domains shown)
VH: B1 VH with S30M, H33R, M34V, L35H
VL: B1 VL with G89Q, I90Q, P91A, I92N, L93S, G94F
notes: recombinant Fab
[1]
  Kd: 0.39 nM

B4: 9A2-VR26 Fab (Fab, V domains shown)
VH: B1 VH with S30I, H33R, M34V, L35H
VL: B1 VL with G89Q, I90Q, P91A, I92N, L93S, G94F
notes: recombinant Fab
[1]
  Kd: 0.23 nM
  koff: 0.00055 s⁻¹
  kon: 2.4e+06 M⁻¹ s⁻¹

B5: 9A2-VR27 Fab (Fab, V domains shown)
VH: B1 VH with S30T, H33R, M34V, L35H
VL: B1 VL with G89Q, I90Q, P91A, I92N, L93S, G94F
notes: recombinant Fab
[1]
  Kd: 0.47 nM
  koff: 0.0011 s⁻¹
  kon: 2.3e+06 M⁻¹ s⁻¹

B6: 9A2-VR32 Fab (Fab, V domains shown)
VH: B1 VH with R52S, S53G, G55V, G56R, F57S
VL: B1 VL with G89Q, I90Q, P91A, I92N, L93S, G94F
notes: recombinant Fab
[1]
  Kd: 0.34 nM

B7: 9A2-VR35 Fab (Fab, V domains shown)
VH: B1 VH with R52N, S53G, S54F, G56R, F57N
VL: B1 VL with G89Q, I90Q, P91A, I92N, L93S, G94F
notes: recombinant Fab
[1]
  Kd: 0.34 nM

B8: 9A2-VR36 Fab (Fab, V domains shown)
VH: B1 VH with R52G, S53G, S54D, G55K, G56R, F57Q
VL: B1 VL with G89Q, I90Q, P91A, I92N, L93S, G94F
notes: recombinant Fab
[1]
  Kd: 0.3 nM

B9: 9A2-VR40 Fab (Fab, V domains shown)
VH: B1 VH with R52N, S53G, S54Y, G56I, F57Q
VL: B1 VL with G89Q, I90Q, P91A, I92N, L93S, G94F
notes: recombinant Fab
[1]
  Kd: 0.52 nM
  koff: 0.00066 s⁻¹
  kon: 1.3e+06 M⁻¹ s⁻¹

B10: 9A2-VR41 Fab (Fab, V domains shown)
VH: B1 VH with R52N, S53G, S54K, G56W, F57T
VL: B1 VL with G89Q, I90Q, P91A, I92N, L93S, G94F
notes: recombinant Fab
[1]
  Kd: 0.46 nM
  koff: 0.00076 s⁻¹
  kon: 1.7e+06 M⁻¹ s⁻¹

B11: 9A2-VR42 Fab (Fab, V domains shown)
VH: B1 VH with R52G, S53G, S54D, G55I, G56R, F57Q
VL: B1 VL with G89Q, I90Q, P91A, I92N, L93S, G94F
notes: recombinant Fab
[1]
  Kd: 0.38 nM

B12: 9A2-VR35 (antibody, V domains shown)
VH: B1 VH with R52N, S53G, S54F, G56R, F57N
VL: B1 VL with G89Q, I90Q, P91A, I92N, L93S, G94F
Human CD131
  IC50 GM-CSF, TF-1 proliferation: 76 nM

B13: 9A2-VR36 (antibody, V domains shown)
VH: B1 VH with R52G, S53G, S54D, G55K, G56R, F57Q
VL: B1 VL with G89Q, I90Q, P91A, I92N, L93S, G94F
Human CD131
  IC50 GM-CSF, TF-1 proliferation: 38.1 nM

B14: 9A2-VR37 (antibody, V domains shown)
VH: B1 VH with R52S, S53G, G55M, G56W, F57S
VL: B1 VL with G89Q, I90Q, P91A, I92N, L93S, G94F
Human CD131
  IC50 GM-CSF, TF-1 proliferation: 48.1 nM

B15: 9A2-VR38 (antibody, V domains shown)
VH: B1 VH with R52N, S53G, S54M, G56A, F57T
VL: B1 VL with G89Q, I90Q, P91A, I92N, L93S, G94F
Human CD131
  IC50 GM-CSF, TF-1 proliferation: 5 nM

B16: 9A2-VR40 (antibody, V domains shown)
VH: B1 VH with R52N, S53G, S54Y, G56I, F57Q
VL: B1 VL with G89Q, I90Q, P91A, I92N, L93S, G94F
Human CD131
  IC50 GM-CSF, TF-1 proliferation: 5.7 nM

B17: 9A2-VR41 (antibody, V domains shown)
VH: B1 VH with R52N, S53G, S54K, G56W, F57T
VL: B1 VL with G89Q, I90Q, P91A, I92N, L93S, G94F
Human CD131
  IC50 GM-CSF, TF-1 proliferation: 7 nM

B18: 9A2-VR42 (antibody, V domains shown)
VH: B1 VH with R52G, S53G, S54D, G55I, G56R, F57Q
VL: B1 VL with G89Q, I90Q, P91A, I92N, L93S, G94F
Human CD131
  IC50 GM-CSF, TF-1 proliferation: 54.7 nM

B19: 9A2-VR43 (antibody, V domains shown)
VH: B1 VH with D101S, S102D, F103H
VL: B1 VL with G89Q, I90Q, P91A, I92N, L93S, G94F
Human CD131
  IC50 GM-CSF, TF-1 proliferation: 53.7 nM

B20: 9A2-VR44 (antibody, V domains shown)
VH: B1 VH with F103H
VL: B1 VL with G89Q, I90Q, P91A, I92N, L93S, G94F
Human CD131
  IC50 GM-CSF, TF-1 proliferation: 36.4 nM

B21: 9A2-VR45 (antibody, V domains shown)
VH: B1 VH with D101S, S102D, F103N
VL: B1 VL with G89Q, I90Q, P91A, I92N, L93S, G94F
Human CD131
  IC50 GM-CSF, TF-1 proliferation: 88.7 nM

B22: 9A2-VR46 (antibody, V domains shown)
VH: B1 VH with D101S, S102D, F103H, D105R, I106E
VL: B1 VL with G89Q, I90Q, P91A, I92N, L93S, G94F
Human CD131
  IC50 GM-CSF, TF-1 proliferation: 23.4 nM

B23: 9A2-VR47 (antibody, V domains shown)
VH: B1 VH with D101S, S102D, F103H, D105S, I106P
VL: B1 VL with G89Q, I90Q, P91A, I92N, L93S, G94F
Human CD131
  IC50 GM-CSF, TF-1 proliferation: 27.2 nM

B24: 9A2-VR48 (antibody, V domains shown)
VH: B1 VH with D101S, S102D, F103H, D105K, I106P
VL: B1 VL with G89Q, I90Q, P91A, I92N, L93S, G94F
Human CD131
  IC50 GM-CSF, TF-1 proliferation: 11.7 nM

B25: 9A2-VR49 (antibody, V domains shown)
VH: B1 VH with D101S, S102D, F103H, D105N, I106P
VL: B1 VL with G89Q, I90Q, P91A, I92N, L93S, G94F
Human CD131
  IC50 GM-CSF, TF-1 proliferation: 23.4 nM

B26: 9A2-VR50 (antibody, V domains shown)
VH: B1 VH with D101S, S102D, F103H, D105A, I106P
VL: B1 VL with G89Q, I90Q, P91A, I92N, L93S, G94F
Human CD131
  IC50 GM-CSF, TF-1 proliferation: 46.5 nM

B27: 9A2-VR1 (antibody, V domains shown)
VH: B1 VH
VL: B1 VL with S30R, S31P, W32F, L33M, G89Q, I90Q, P91A, I92N, L93S, G94F
Human CD131
  IC50 GM-CSF, TF-1 proliferation: 294 nM

B28: 9A2-VR2 (antibody, V domains shown)
VH: B1 VH
VL: DIQMTQSPSSVSASVGDRVTITCRASQGQRPFVSWYQQKPGKAPKLLIYAASSLQSGVPSRFSGSGSGTDFTLTISSLQPEDFATYYCQQANSFPITFGQGTRLEIKR
Human CD131
  IC50 GM-CSF, TF-1 proliferation: 444 nM

B29: 9A2-VR3 (antibody, V domains shown)
VH: B1 VH
VL: B28 VL with Q29L, S34N
Human CD131
  IC50 GM-CSF, TF-1 proliferation: 101 nM

B30: 9A2-VR4 (antibody, V domains shown)
VH: B1 VH
VL: B28 VL with Q29I, S34D
Human CD131
  IC50 GM-CSF, TF-1 proliferation: 122 nM
